Measurements reported in publication PMC6688928.

Tests used:
[1] = target: MBP-NaVAb/KAV/G94C/Q150C, disulfide-crosslinked (UniProt A8EVM5); experiment: cryo-EM structure
[2] = target: MBP-NaVAb/KAV/G94C/Q150C, disulfide-crosslinked (UniProt A8EVM5); experiment: cross-linking
[3] = target: FLAG-NaVAb KAV/G94C/Q150C (Hi5 cells, crosslinking assay) (UniProt A8EVM5); experiment: cross-linking
[4] = target: FLAG-NaVAb E96C/Q150C (Hi5 cells, crosslinking assay) (UniProt A8EVM5); experiment: cross-linking
[5] = target: FLAG-NaVAb V100C/Q150C (Hi5 cells, crosslinking assay) (UniProt A8EVM5); experiment: cross-linking
[6] = target: FLAG-NaVAb G94C/Q150C (Hi5 cells, crosslinking assay) (UniProt A8EVM5); experiment: cross-linking
[7] = target: FLAG-NaVAb KAV/E96C/Q150C (Hi5 cells, crosslinking assay) (UniProt A8EVM5); experiment: cross-linking
[8] = target: NaVAb/V100C/Q150C Δ28, disulfide-crosslinked; experiment: cross-linking

MBP-NaVAb/KAV/G94C/Q150C, disulfide-crosslinked (from UniProt A8EVM5 5-267) (natural protein)
stoichiometry N [1]: 4 | stoichiometry N [2]: 4

FLAG-NaVAb KAV/G94C/Q150C (Hi5 cells, crosslinking assay) (from UniProt A8EVM5 1-267) (natural protein)
percent crosslinked in tetramers [3]: 80% | stoichiometry N [3]: 4

FLAG-NaVAb E96C/Q150C (Hi5 cells, crosslinking assay) (from UniProt A8EVM5 1-267) (natural protein)
percent formation of disulfide-crosslinked tetramers [4]: 40% | stoichiometry N [4]: 4

FLAG-NaVAb V100C/Q150C (Hi5 cells, crosslinking assay) (from UniProt A8EVM5 1-267) (natural protein)
percent formation of disulfide-crosslinked tetramers [5]: 80% | stoichiometry N [5]: 4

FLAG-NaVAb G94C/Q150C (Hi5 cells, crosslinking assay) (from UniProt A8EVM5 1-267) (natural protein)
percent formation of disulfide-crosslinked tetramers [6]: 20% | stoichiometry N [6]: 4

FLAG-NaVAb KAV/E96C/Q150C (Hi5 cells, crosslinking assay) (from UniProt A8EVM5 1-267) (natural protein)
percent crosslinked in tetramers [7]: 80% | stoichiometry N [7]: 4

NaVAb/V100C/Q150C Δ28, disulfide-crosslinked (domain or fragment)
stoichiometry N [8]: 4
